Data on one substance can be found in PMC2786213.

Data set [1] addresses discoidin domain receptor 1 (DDR1), mouse DDR1a, tagged with cyan or yellow fluorescent protein (mouse). Briefly: FRET or BRET.

Chain of discoidin domain receptor 1 (DDR1), mouse DDR1a, tagged with cyan or yellow fluorescent protein (Q03146 20-911): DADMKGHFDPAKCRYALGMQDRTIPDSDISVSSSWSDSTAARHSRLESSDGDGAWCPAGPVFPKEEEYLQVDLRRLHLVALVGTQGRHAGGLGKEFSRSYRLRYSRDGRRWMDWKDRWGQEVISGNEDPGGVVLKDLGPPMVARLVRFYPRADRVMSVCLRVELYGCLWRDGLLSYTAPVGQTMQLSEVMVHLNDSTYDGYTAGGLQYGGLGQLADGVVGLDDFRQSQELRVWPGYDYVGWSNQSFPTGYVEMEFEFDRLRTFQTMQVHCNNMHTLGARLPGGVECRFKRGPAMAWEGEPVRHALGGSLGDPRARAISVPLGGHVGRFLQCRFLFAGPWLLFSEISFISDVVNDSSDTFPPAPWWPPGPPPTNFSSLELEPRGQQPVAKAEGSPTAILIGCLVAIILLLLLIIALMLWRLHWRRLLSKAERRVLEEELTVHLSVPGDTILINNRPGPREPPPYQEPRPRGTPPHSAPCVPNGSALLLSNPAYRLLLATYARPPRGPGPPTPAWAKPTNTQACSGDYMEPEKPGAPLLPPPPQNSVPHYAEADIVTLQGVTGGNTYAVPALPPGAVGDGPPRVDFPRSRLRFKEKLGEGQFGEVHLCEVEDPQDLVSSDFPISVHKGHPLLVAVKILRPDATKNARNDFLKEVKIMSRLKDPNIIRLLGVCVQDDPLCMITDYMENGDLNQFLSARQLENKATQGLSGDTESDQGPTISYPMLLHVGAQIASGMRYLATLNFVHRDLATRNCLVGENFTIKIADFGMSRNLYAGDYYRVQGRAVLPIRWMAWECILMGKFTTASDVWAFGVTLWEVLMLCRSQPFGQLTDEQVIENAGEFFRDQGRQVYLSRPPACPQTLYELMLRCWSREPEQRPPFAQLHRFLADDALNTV

Turning to “discoidin domain receptor 1 (DDR1), mouse DDR1a, tagged with cyan or yellow fluorescent protein”, in the data set “FRET or BRET”, the FRET index FC/A (collagen 5 min, aggregated ROI) was 14.6; the FRET index FC/A (collagen 30 min, aggregated ROI) was 15.2; the FRET index FC/A (collagen 60 min, aggregated ROI) stood at 13.8; the FRET index FC/A (collagen 60 min, nonaggregated ROI) is 5.2. Also, in data set [1], the FRET index FC/A (0 min, no collagen) is 5.1.
